The assay addresses IL-1 receptor expressed by INS-1 cells (rat (INS-1 cells are derived from a rat insulinoma)) (UniProt Q02955).

Substance IL-1β (ligand) showed an NO release of 6.56 µM.

The values above are taken from US20140011728A1.
